Values quoted from earlier work as cited in article PMC9406205.

Columns and labels:
[1] = molecular target: PRK (Chlamydomonas reinhardtii) (UniProt P19824); assay: surface plasmon resonance
[2] = molecular target: GAPDH (Chlamydomonas reinhardtii) (UniProt P50362); assay: surface plasmon resonance

Sequence of UniProt P19824 (P19824 32-375): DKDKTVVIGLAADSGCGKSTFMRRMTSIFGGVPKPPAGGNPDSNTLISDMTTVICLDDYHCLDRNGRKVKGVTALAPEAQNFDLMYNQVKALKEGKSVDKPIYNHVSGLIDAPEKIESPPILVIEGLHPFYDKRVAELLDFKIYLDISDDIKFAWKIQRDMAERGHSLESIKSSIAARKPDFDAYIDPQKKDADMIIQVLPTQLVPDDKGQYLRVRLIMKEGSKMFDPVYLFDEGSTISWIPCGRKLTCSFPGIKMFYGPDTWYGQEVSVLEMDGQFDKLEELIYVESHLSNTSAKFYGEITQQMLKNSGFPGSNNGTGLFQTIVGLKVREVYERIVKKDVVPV

Substance | Kd [1] | Kd [2]
GAPDH-CP12 subcomplex (from UniProt P50362) | 60 nM | –
CP12 (from UniProt A6Q0K5) | – | 0.44 nM
